The target of the data set is T1, SSBP1 (single-stranded DNA-binding protein 1, mitochondrial) (UniProt Q04837 17-148).
T1 sequence: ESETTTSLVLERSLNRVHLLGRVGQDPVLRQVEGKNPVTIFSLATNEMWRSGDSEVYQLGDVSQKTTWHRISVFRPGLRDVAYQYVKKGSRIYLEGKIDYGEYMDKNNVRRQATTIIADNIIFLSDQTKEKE
Briefly: fluorescence anisotropy. Background: In fluorescence polarisation assays a small probe gives low polarisation when free and higher when bound to something large.

B1: 5x 6mA fluorescent probe (PG491/PG493) (dsDNA)
DNA 1: TATTTAACCTAAATTTCTATAAGATTATTAGTATAAAAGGG
DNA 2: CCCTTTTATACTAATAATCTTATAGAAATTTAGGTTAAATA
modifications: N6-methyldeoxyadenosine at strand 1 positions 19, 24, 27, 30, 33
In the case of B1, the binding result is recorded as “binds”.

The values above are taken from article PMC6294517.
